Reference: patent US9051358B2, “Nonnatural collagen-like protein and use thereof” (ZHEJIANG UNIVERSITY, priority 2009, dated 2015)

B1: rGLK1164/G-CSF: fusion protein of GLK1164 and hG-CSF (SEQ ID NO: 6) (protein)
chain: GPPGEQGKPGNQGEPGNPGSPGQPGNPGQPGSPGNPGQPGNEGPQGSQGNPGQPGEPGSNGQPGQPGQNGKNGQPGSPGSQGSPGNQGSPGNQGQPGNKGEQGKPGNQGPAGEQGKPGNQGEPGNPGSPGQPGNPGQPGSPGNPGQPGNEGPQGSQGNPGQPGEPGSNGQPGQPGQNGKNGQPGSPGSQGSPGNQGSPGNQGQPGNKGEQGKPGNQGPAGEQGKPGNQGEPGNPGSPGQPGNPGQPGSPGNPGQPGNEGPQGSQGNPGQPGEPGSNGQPGQPGQNGKNGQPGSPGSQGSPGNQGSPGNQGQPGNKGEQGKPGNQGPAGEQGKPGNQGEPGNPGSPGQPGNPGQPGSPGNPGQPGNEGPQGSQGNPGQPGEPGSNGQPGQPGQNGKNGQPGSPGSQGSPGNQGSPGNQGQPGNKGEQGKPGNQGPAGGSGGTPLGPASSLPQSFLLKCLEQVRKIQGDGAALQEKLCATYKLCHPEELVLLGHSLGIPWAPLSSCPSQALQLAGCLSQLHSGLFLYQGLLQALEGISPELGPTLDTLQLDVADFATTIWQQMEELGMAPALQPTQGAMPAFASAFQRRAGGVLVASHLQSFLEVSYRVLRHLAQP
modifications: rGLK116 tetramer/G-CSF
B2: rhG-CSF: rhG-CSF (Filgrastim, Amgen, USA) (protein, UniProt P09919 31-207, looked up)
Granulocyte …: TPLGPASSLPQSFLLKCLEQVRKIQGDGAALQEKLVSECATYKLCHPEELVLLGHSLGIPWAPLSSCPSQALQLAGCLSQLHSGLFLYQGLLQALEGISPELGPTLDTLQLDVADFATTIWQQMEELGMAPALQPTQGAMPAFASAFQRRAGGVLVASHLQSFLEVSYRVLRHLAQP
modifications: filgrastim, N-terminal Met
B3: rGLK420/G-CSF: fusion protein of GLK420 and G-CSF (SEQ ID NO: 10) (protein)
chain: GPPGEDGDKGEIGEPGQKGSKGDKGEQGPPGPTGPQGPIGQPGPSGADGEPGPRGQQGLFGQKGDEGPRGFPGPPGPVGLQGLPGPPGEKGETGDVGQMGPPGPPGPRGPSGAPGADGPQGPPGGIGNPGAVGEKGEPGEAGEPGLPGEGGPPGPKGERGEKGESGPSGAAGPPGPKGPPGDDGPKGSPGPVGFPGDPGPPGEPGPAGQDGPPGDKGDDGEPGQTGSPGPTGEPGPSGPPGKRGPPGPAGPEGRQGEKGAKGEAGLEGPPGKTGPIGPQGAPGKPGPDGLRGIPGPVGEQGLPGSPGPDGPPGPMGPPGLPGLKGDSGPKGEKGHPGLIGLIGPPGEQGEKGDRGLPGPQGSSGPKGEQGITGPSGPIGPPGPPGLPGPPGPKGAKGSSGPTGPKGEAGHPGPPGPPGPPTPLGPASSLPQSFLLKCLEQVRKIQGDGAALQEKLCATYKLCHPEELVLLGHSLGIPWAPLSSCPSQALQLAGCLSQLHSGLFLYQGLLQALEGISPELGPTLDTLQLDVADFATTIWQQMEELGMAPALQPTQGAMPAFASAFQRRAGGVLVASHLQSFLEVSYRVLRHLAQP
modifications: GLK420/G-CSF, fusion protein

What was measured:
[1] = system: G-CSF-dependent cell line NFS60; assay: In vitro bioactivity in G-CSF-dependent cell line NFS60 by MTT assay; format: cell-based; conditions: for Bioactivity (IU/mg): Table 4; for Relative activity (in molar basis)(%): relative to G-CSF
Procedure: In vitro bioactivity of the rGLK1164/G-CSF fusion protein was measured in G-CSF-dependent cell line NFS60 by MTT assay (Chinese Pharmacopoeia, 2005 edition, three sections).

[2] = In vitro stability, shock at 40° C., SEC-HPLC analysis; format: physicochemical; conditions: for Purity (%) (SEC-HPLC analysis): 1 mg/ml in 20 mM PB pH6.0, 40° C.; for protein content after incubation (%): 40° C.; for in vitro stability (aggregates, total protein content): shock 48 hours at 40° C.
Procedure: Reference rhG-CSF and rGLK1164/G-CSF were dissolved in 20 mM PB, pH6.0 to the protein concentration of 1 mg/ml. samples were sterile filtered and distributed to penicillin bottles. […]

[3] = Immunogenicity study in mice, serum antibody detection by ELISA; format: in vivo, Balc/C mice; conditions: sc once a week, 2.5 nmol
Procedure: Balc/C mice (n=12) with a average weight of about 25 g were evenly divided into 4 groups. 2.5 nmol rGLK1164, 2.5 nmol rGLK1164/G-CSF, and the same volume of saline were administered to a corresponding group respectively by subcutaneous injection once a week. Serum samples were collected in week 4 and week 9(a week after the eighth immunization) and were saved separately at −70° C.
rGLK1164 or G-CSF was diluted with 0.2M carbonate buffer (pH9.6) to 1 μg/ml. Each well of the ELISA microplate was filled with 100 μl dilution and coated overnight at 4° C., and then the wells were washed with PBST for 3 times(5 minutes each time). The washed wells were sealed by 5% nonfat dry milk for 1 hour, and then washed three times with PBST (5 minutes each time). The preserved serum of each group was added to the well at a rate of 1:50,1:200,1:800, and then the microplate was incubated at 37° C. for 1 hour, and for one increased hour after the secondary antibody, HRP-conjugated goat anti-mouse antibody was added. After the microplate was shook to dry and washed by PBST, it was colored with TMB-HCL and detected under the illumination of 450 nm. Meanwhile, 200 ng/ml of rabbit anti-human G-CSF antibody was used as a positive control.

[4] = system: white blood cells; assay: Pharmacodynamic study, number of white blood cells in SD rats; format: in vivo
Text: (§1) The pharmacokinetic parameters and pharmacodynamic properties of rhG-CSF (Filgrastim, Amgen, USA), rHSA/G-CSF (prepared according to U.S. Pat. No. 5,876,969), rGLK1164/G-CSF and rGLK1164 in SD rats were compared.
(§2) Adult SPF SD rats (approximately 300-350 g) from the Center of Experimental Animals of Chinese Academy of Sciences in Shanghai were divided into 8 groups and administered according to Table 3. Blood samples were collected from the caudal veins of rats. The number of white blood cells were counted, and serum was saved at −20° C. after separated by centrifugation (3000rpm for 5 minutes).

[5] = Pharmacokinetics of G-CSF proteins in SD rats (ELISA); format: in vivo; conditions: for Half-life: SD rats; for detectability in blood after subcutaneous injection: blood concentration-time curve
Text: as §1, §2
The plasma concentration detection of rhG-CSF, rGLK1164/G-CSF and rHSA/G-CSF was carried out using ELISA (for the specific operations, refer to the operating manual of Human G-CSF DuoSet kit Human G-CSF ELISA Construction Kit (ANTIGENIX)). The MicroCal Origin software was used to draw standard curve according to four-parameter logistic fitting method, and calculate related statistical parameters by regression analysis. The 3P87 software was used to calculate the PK parameters.
GLK/G-CSFs with different structures were prepared in a similar way, and their activity, half-life in SD rats and other relevant parameters were compared.

| Molecule | in vitro activity [1] | Bioactivity (IU/mg) [1] | Relative activity (in molar basis)(%) [1] [%] | Purity (%) (SEC-HPLC analysis) ([2]; 0 h) | protein content after incubation (%) ([2]; 0 h) | Purity (%) (SEC-HPLC analysis) ([2]; 24 h) | protein content after incubation (%) ([2]; 24 h) | Purity (%) (SEC-HPLC analysis) ([2]; 48 h) | protein content after incubation (%) ([2]; 48 h) | in vitro stability (aggregates, total protein content) [2] | serum anti-G-CSF antibody ([3]; plate coated by G-CSF) | serum anti-rGLK1164 antibody ([3]; plate coated by rGLK1164) | number of white blood cells ([4]; 48 hours after an injection) | extent and duration of white blood cell increase versus rHSA/G-CSF ([4]; same dosage) | Half-life [5] [h] | terminal half-life ([5]; administered subcutaneously in rats) [h] | detectability in blood after subcutaneous injection [5] |
| --- | --- | --- | --- | --- | --- | --- | --- | --- | --- | --- | --- | --- | --- | --- | --- | --- | --- |
| B1 | about 3.3×10^7 IU/mg | 0.33 × 10^8 IU/mg | 146 | 99.5 | 100 | 98.7 | 97.8 | 97.5 | 96.7 | changed little | anti-G-CSF antibody is produced | no anti-rGLK1164 antibody produced | increased significantly | no significant difference | >7 | 10 | could still be detected at 72 hours |
| B2 |  | 0.7 × 10^8 IU/mg | 100 | 99.8 | 100 | 94.3 | 91.2 | 85.2 | 68.9 | a large number of polymeric aggregates were formed and the total protein content was also decreased significantly |  |  |  |  | 1.7 |  | couldn't be detected 24 hours later |
| B3 |  | 0.28 × 10^8 IU/mg | 129 |  |  |  |  |  |  |  |  |  |  |  | >7 |  |  |
